This note sets out measurements from PMC8266384, “A two-site flexible clamp mechanism for RET-GDNF-GFRα1 assembly reveals both conformational adaptation and strict geometric spacing” (Structure(London, England:1993), 2021).

Where a chain is given by its changes, count along the chain named. Numbers in names are those of the source. Where “and” joins values, the source holds several entries; their conditions need not be identical. Equal values may be shown once.

Series [1] addresses zRET^ECD-zGDNF^mat.-zGFRα1a^D1-3 ternary complex (zRGα1a), 2:2:2 (zebrafish) (UniProt A8E7C6). Briefly: cryo-EM micrographs, particle-pair analysis and 2D class averages; non-crosslinked zRGα1a at 0.1 mg/ml on Quantifoil grids (dataset 3); complex with complex in linear arrays.
The target in series [2] is T1, zGDNF^mat._(Y158A)-zGFRα1a^D1−3WT complex (zebrafish, UniProt Q98TT9 1-353; Q98TU0 135-235, Y158A).
T1 sequence 1: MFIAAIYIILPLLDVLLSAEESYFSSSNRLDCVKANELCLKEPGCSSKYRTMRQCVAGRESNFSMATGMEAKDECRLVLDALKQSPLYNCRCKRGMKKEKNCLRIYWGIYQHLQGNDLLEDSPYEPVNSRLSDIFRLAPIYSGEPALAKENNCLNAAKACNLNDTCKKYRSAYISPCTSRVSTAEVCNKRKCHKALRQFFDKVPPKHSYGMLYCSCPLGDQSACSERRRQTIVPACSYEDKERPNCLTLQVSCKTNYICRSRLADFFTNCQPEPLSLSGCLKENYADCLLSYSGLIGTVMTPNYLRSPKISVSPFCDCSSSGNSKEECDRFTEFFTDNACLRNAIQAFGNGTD
T1 sequence 2: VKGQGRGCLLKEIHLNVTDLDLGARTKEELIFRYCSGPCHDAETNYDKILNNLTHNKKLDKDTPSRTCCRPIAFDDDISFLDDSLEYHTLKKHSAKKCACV
Briefly: MST.

Series [3] deals with T2, zebrafish RET extracellular domain (zRET^ECD), A8E7C6.
T2 chain: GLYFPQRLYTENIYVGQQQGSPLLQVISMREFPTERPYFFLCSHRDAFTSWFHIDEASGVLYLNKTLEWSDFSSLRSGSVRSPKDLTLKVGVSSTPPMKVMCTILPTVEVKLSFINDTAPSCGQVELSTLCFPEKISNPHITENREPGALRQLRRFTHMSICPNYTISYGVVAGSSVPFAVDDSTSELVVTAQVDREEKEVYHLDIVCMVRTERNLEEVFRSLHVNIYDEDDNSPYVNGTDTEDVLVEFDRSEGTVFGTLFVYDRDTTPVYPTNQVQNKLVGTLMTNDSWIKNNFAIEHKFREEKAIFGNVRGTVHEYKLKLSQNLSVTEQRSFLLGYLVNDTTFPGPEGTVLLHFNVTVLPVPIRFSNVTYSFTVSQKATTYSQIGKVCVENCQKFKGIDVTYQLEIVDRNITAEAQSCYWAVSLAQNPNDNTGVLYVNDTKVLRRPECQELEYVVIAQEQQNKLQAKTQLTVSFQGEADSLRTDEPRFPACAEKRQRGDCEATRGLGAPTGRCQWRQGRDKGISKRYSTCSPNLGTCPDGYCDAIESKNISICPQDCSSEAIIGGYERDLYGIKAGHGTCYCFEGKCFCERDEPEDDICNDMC
Briefly: MST. The conditions noted are these: chain shown with the change.

The target of series [4] is zebrafish RET extracellular domain (zRET^ECD) (zebrafish) (UniProt A8E7C6). Briefly: MST; zRET^ECD labelled with NHS-RED (50 nM fluorophore) held constant, unlabelled zGFRα1^D1-3-zGDNF^mat. (WT and mutants) in 1:1 serial dilution; 25°C; 20 mM HEPES pH 7.0, 150 mM NaCl, 1 mM CaCl2, 0.05 % Tween-20; quadratic fit, at least three repeats.
Series [5] addresses zRET^ECD with the CLD3-β2-β3 loop truncated to AAG (zRET^ECD_(P291-Q296:AAG)) (zebrafish) (UniProt A8E7C6). The description is as above.
Series [6] deals with the molecule itself. Briefly: cryo-EM structure; reconstituted zRGα1a complex crosslinked by GraFix (glutaraldehyde), 0.1 mg/ml; 20 mM Tris pH 7.0, 150 mM NaCl, 1 mM CaCl2; untilted and 30° tilted datasets.

Turning to “zRET^ECD-zGDNF^mat.-zGFRα1a^D1-3 ternary complex (zRGα1a), 2:2:2 (from UniProt A8E7C6 1-626; Q98TT9 1-353; Q98TU0 135-235)”, the stoichiometry N in series [1] was 2 and 4.

B1: zebrafish RET extracellular domain (zRET^ECD) (domain or fragment)
chain: T2 chain
modifications: NHS-RED 2nd generation dye (amine reactive) in the MST only
B1 gave a Kd in series [2] of 173 nM.

B2: zGDNF^mat.-zGFRα1a^D1-3 complex (2:2), wild type, Q98TT9;Q98TU0 N323A (protein)
chain 1: T1 sequence 1 with N323A
chain 2: T1 sequence 2 with A24Y
Molecule B2 displayed a Kd in series [3] (fluorescently labeled zRETECD, minimum of n = 3 repeats) of 88 nM.

B3: zGDNF^mat.-zGFRα1a^D1-3 complex (2:2), wild type, Q98TT9;Q98TU0 L156A (protein)
chain 1: T1 sequence 1
chain 2: T1 sequence 2 with L22A, A24Y
As to B3, the Kd in series [3] was 88 nM.

B4: zGDNF^mat.WT-zGFR1α1a^D1−3_(E326A,E327A) complex (complex)
chain 1: T1 sequence 1 with E326A, E327A
chain 2: T1 sequence 2 with A24Y
B4: in series [4], the Kd was 170 nM.

B5: zGDNF^mat.-zGFRα1a^D1-3 complex (2:2), wild type (complex)
chain 1: T1 sequence 1
chain 2: T1 sequence 2 with A24Y
B5: the dissociation constant (Kd) in series [4] was 90 nM; in series [5], 18 nM.

B6: zGDNFwt-zGFR1α1a^D1−3_(N323A,E326A,E327A) complex (complex)
chain 1: T1 sequence 1 with N323A, E326A, E327A
chain 2: T1 sequence 2 with A24Y
Turning to B6, the equilibrium dissociation constant (Kd) in series [4] was found to be 2350 nM.

B7: zGDNF^mat._(Y158A)-zGFRα1a^D1−3WT complex (complex)
chain 1: T1 sequence 1
chain 2: T1 sequence 2
As for B7, the fold decrease in affinity against the wild type in series [4] amounted to 2 fold.

B8: zebrafish GDNF, N-terminally truncated (zGDNF^mat.) (ligand, UniProt Q98TU0 135-235, looked up)
chain: T1 sequence 2 with A24Y
notes: One protomer; it stands as a dimer in the complexes; also called GDNF1; not shown: Protein A, C-terminal, cleaved
In the case of B8, the “stoichiometry N” value in series [6] was found to be 2.

Usually stoichiometry N stands for a count of units in the complex or per binding partner. A word on the Kd: it is the equilibrium constant for the complex coming apart. Low values mean higher affinity, high ones lower affinity.
